Assay results reported in US20140370030A1 (CENTRE NATIONAL DE LA RECHERCHE SCIENTIFIQUE CNRS, published 2014).
Values belong to the molecule of their own block, whether it stands above or below them.

Experiments:
[1] = target: recombinant human sPLA2-X (human group X secreted phospholipase A2), mature enzyme (human) (UniProt O15496); assay: indirect ELISA on wells coated with 50 ng recombinant human sPLA2-X; one-site saturation fit, relative Kd
[2] = target: T1, recombinant human sPLA2-X (human group X secreted phospholipase A2), mature enzyme (human, UniProt O15496 43-165); assay: as above
T1 construct: also called hGX
T1 sequence: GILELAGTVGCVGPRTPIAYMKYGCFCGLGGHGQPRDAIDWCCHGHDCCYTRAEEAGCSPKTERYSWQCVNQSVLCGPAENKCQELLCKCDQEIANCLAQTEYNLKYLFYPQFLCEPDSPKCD

[3] = target: T1, recombinant human sPLA2-X (human group …); assay: indirect ELISA on coated recombinant human sPLA2-X, anti-mouse IgG-HRP detection; one-site saturation fit
[4] = target: T1, recombinant human sPLA2-X (human group …); assay: indirect ELISA on coated recombinant human sPLA2-X, streptavidin-HRP detection; one-site saturation fit
[5] = target: T1, recombinant human sPLA2-X (human group …); assay: indirect ELISA on coated recombinant human sPLA2-X

Molecule: commercially available monoclonal antibody H9 (ref. SC-365730, Santa Cruz Biotechnology)
Kd [1]: 8.94 nM

B2: biotinylated monoclonal antibody #8D9 (antibody, V domains shown)
VH: EVKLVESGGGLVKPGGSLKLSCAASGFTFSNYPMSWVRQTPAKRLEWVATISSGGDDTYYPDSVKGRFTISRDNARNTLYLQMSCLRSEDTALYYCARPQLGPWGQGTTLTVSS
VL: DIVMTQAAPSVPVTPGDSVSISCRSSKSLLHSNGITYLYWFLQRPGQSPQRLIYYMSNLASGVPDRFSGRGSGTDFTLRISRVEAEDVGVYYCMQSLEYPLTFGAGTKLELKR
modifications: biotinylated (Pierce kit ref. 21435); sites not stated
notes: also called #8D9-Biot; 8D9-biot
Kd [4]: 0.353 nM

B3: biotinylated monoclonal antibody #9C12 (antibody, V domains shown)
VH: QIQLVQSGPELKKPGETVKISCKASGYTFTNYGMNWVKQAPGKGLKWMGWIKTNTGEPTYAEEFKGRFAFSLETSASTAYLQINNLKNEDTATYFCARGNYYRPRRYFDYWGQGTTLTVSS
VL: DIQMSQSPASLSASVGETVTMTCRASENLYSNLAWYQQKQGKSPQLLVYAATNLADGVPSRFSGSGSGTQFSLKINSLQPEDFGSYYCQHFYVTPYTFGGGTKLEIKR
modifications: biotinylated (Pierce kit ref. 21435); sites not stated
notes: also called #9C12-Biot
binding result [5]: binds

Next, values leading:

Kd [2]: 0.327 nM
Kd [3]: 0.246 nM
B1: monoclonal anti-sPLA2-X antibody #8D9 (antibody, V domains shown)
VH: EVKLVESGGGLVKPGGSLKLSCAASGFTFSNYPMSWVRQTPAKRLEWVATISSGGDDTYYPDSVKGRFTISRDNARNTLYLQMSCLRSEDTALYYCARPQLGPWGQGTTLTVSS
VL: DIVMTQAAPSVPVTPGDSVSISCRSSKSLLHSNGITYLYWFLQRPGQSPQRLIYYMSNLASGVPDRFSGRGSGTDFTLRISRVEAEDVGVYYCMQSLEYPLTFGAGTKLELKR
notes: Mouse monoclonal antibody from a hybridoma, purified by protein A; also called 8D9 antibody; hybridoma CNCM I-4523

Kd [2]: 0.181 nM
B4: monoclonal anti-sPLA2-X antibody #9C12 (antibody, V domains shown)
VH: QIQLVQSGPELKKPGETVKISCKASGYTFTNYGMNWVKQAPGKGLKWMGWIKTNTGEPTYAEEFKGRFAFSLETSASTAYLQINNLKNEDTATYFCARGNYYRPRRYFDYWGQGTTLTVSS
VL: DIQMSQSPASLSASVGETVTMTCRASENLYSNLAWYQQKQGKSPQLLVYAATNLADGVPSRFSGSGSGTQFSLKINSLQPEDFGSYYCQHFYVTPYTFGGGTKLEIKR
notes: Mouse monoclonal antibody from a hybridoma, purified by protein A; also called 9C12 antibody; hybridoma CNCM I-4524
